Residue numbers refer to the chain shown, from its start.
T1: CLDN6 endogenously expressed by human cancer cell lines (ARK2, OVCA429) (human, UniProt P56747 1-220)
T1 construct: Untagged endogenous protein; also called Endogenous CLDN6+
T1 sequence: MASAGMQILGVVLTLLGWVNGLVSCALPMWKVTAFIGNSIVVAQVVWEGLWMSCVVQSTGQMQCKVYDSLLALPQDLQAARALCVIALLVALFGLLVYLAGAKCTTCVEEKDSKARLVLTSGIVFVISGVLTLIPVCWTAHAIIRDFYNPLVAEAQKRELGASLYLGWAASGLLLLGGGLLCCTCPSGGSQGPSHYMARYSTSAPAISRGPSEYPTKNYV

T2: human CLDN6 fused to GFP, expressed on engineered HEK293T cells (HEK293T-CLDN6-mGFP) (human, UniProt P56747 1-220)
T2 construct: It calls residues 1-21 a signal peptide; also called Claudin-6; HEK293T-CLDN6-mGFP Artificial CLDN6+; not shown: mGFP tag
T2 sequence: T1 sequence

B1: AB9-3 (antibody, V domains shown)
VH: QVQLVQSGAEVKKPGASVKMSCKASGYRFTDYNMHWVRQAPGQGLEWIGYINPNNGGTNYAQKFQGRATLTVDTSTSTAYMELSSLRSEDTAVYYCARDYLYFFDCWGQGTLLTVSS
VL: DIQMTQSPSSLSASVGDRVTITCLASQTIGTWLAWYQQKPGKAPKLLIYAAASLADGVPSRFSGSGSGTDFTFTISSLQPEDFVTYYCQQLYSIPRTFGQGTKLEIK
notes: also called Humanized AB 9-3
B2: AB9-4 (antibody, V domains shown)
VH: B1 VH
VL: B1 VL with L24R
notes: also called Humanized AB 9-4
B3: AB4-4 (antibody, V domains shown)
VH: QVQLVQSGAEVKKPGASVKMSCKASGYTFTSYTMHWIRQAPGQGLEWIGYINPSSTYTHYAQKFQGRATLTADTSTSTAYMELSSLRSEDTAVYYCSRGELGGFAYWGQGTLVTVSS
VL: DVVMTQSPLSLPVTLGQPASISCRSSQSLVHSDGNTYLNWYQQRPGQSPRLLIYKVSNRFSGVPDRFSGSGSGTDFTLKISRVEAEDVGVYYCSQSTHVPYTFGQGTKLEIK
notes: also called Humanized AB 4-4
B4: AB4-5 (antibody, V domains shown)
VH: B3 VH with L45Q
VL: B3 VL
notes: also called Humanized AB 4-5
B5: AB4-3 (antibody, V domains shown)
VH: B3 VH with M20V, I37V, I48M, A68V, L70M, A79V
VL: B3 VL
notes: also called Humanized AB 4-3
B6: AB3-3 (antibody, V domains shown)
VH: EVQLLESGGGLVQPGGSMRLSCAASGFTFSNYWMNWVRQAPGKGLEWVAQIRLKSDNYATHYADSVKGRFTISRDDSKNTVYLQMNSLRAEDTGVYYCNDGPPSGCWGQGTLLTVSS
VL: DIQMTQSPSSLSASVGDRVTITCRISENIYSYLAWYQQKPGKAPKLLVYNAKILVEGVPSRFSGSGSGTDFTLTISSLQPEDFGTYYCQHHYTVPWTFGQGTKLEIK
notes: also called Humanized AB 3-3
B7: AB3-4 (antibody, V domains shown)
VH: B6 VH with C106Y
VL: B6 VL with V48I, G84A
notes: also called Humanized AB 3-4
B8: AB3-2 (antibody, V domains shown)
VH: B6 VH
VL: B6 VL with V48I, G84A
notes: also called Humanized AB 3-2
B9: AB3-5 (antibody, V domains shown)
VH: B6 VH with C106Y
VL: B6 VL
notes: also called Humanized AB 3-5
B10: AB9-chim (antibody, V domains shown)
VH: EVQLQQSGPELVKPGASVKMSCKASGYRFTDYNMHWVKQSHGKSLEWIGYINPNNGGTNYNQNFKGKATLTVNKSSSTAYMELRSLTSEDSAAYYCARDYLYFFDCWGQGTTLTVSS
VL: DIQMTQSPASQSASLGESVTITCLASQTIGTWLAWYQQKPGKSPQLLIYAAASLADGVPSRFSGSGSGTRFSFKISSLQAEDFVSYYCQQLYSIPRTFGGGTKLEIK
notes: 'chim' is the pre-humanized form (parental variable regions); also called pre-humanized (chimeric) form of AB9
B11: AB18-3 (antibody, V domains shown)
VH: QVQLVQSGAEVKKPGASVKVSCKASGYSFTGYNMNWVRQAPGQGLEWMGNIDPYYGGSTYAQKFQGRVTMTVDTSTSTVYMELSSLRSEDTAVYYCARERSGYVFSAMDYWGQGTLVTVSS
VL: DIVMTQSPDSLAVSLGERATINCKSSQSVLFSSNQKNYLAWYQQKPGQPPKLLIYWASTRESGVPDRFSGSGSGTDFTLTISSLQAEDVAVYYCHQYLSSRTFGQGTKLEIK
notes: Humanized; also called Humanized AB 18-3
B12: AB18-6 (antibody, V domains shown)
VH: B11 VH with V20I, M48I, V68A, M70L, V79A
VL: DIVMTQSPDSLAVSLGERVTMNCKSSQSVLFSSNQKNYLAWYQQKPGQPPKLLIYWASTRESGVPDRFSGSGSGTDFTLTISSVQAEDVAVYYCHQYLSSRTFGQGTKLEIK
notes: also called Humanized AB 18-6
B13: AB18-4 (antibody, V domains shown)
VH: B11 VH
VL: B12 VL
notes: also called Humanized AB 18-4
B14: AB18-5 (antibody, V domains shown)
VH: B11 VH with V20I, M48I, V68A, M70L, V79A
VL: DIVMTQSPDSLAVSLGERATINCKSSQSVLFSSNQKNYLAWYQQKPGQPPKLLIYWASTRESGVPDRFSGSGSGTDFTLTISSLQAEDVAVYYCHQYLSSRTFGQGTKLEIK
notes: also called Humanized AB 18-5
B15: AB18-chim (antibody, V domains shown)
VH: QVQLKQSGPELEKPGASVKISCKASGYSFTGYNMNWVKQSNGKSLEWIGNIDPYYGGSTYNQKFTGKATLTVDKSSSTAYMQLKSLTSEDSAVYYCARERSGYVFSAMDYWGQGTSVTVSS
VL: NIMMTQSPSSLAVSAGEKVTMSCKSSQSVLFSSNQKNYLAWYQQKPGQSPRLLIYWASTRESGVPDRFTGSGSGTDFTLTISNVQAEDLAVYYCHQYLSSRTFGAGTKLELK
notes: 'chim' is the pre-humanized form (parental variable regions); also called pre-humanized (chimeric) form of AB18
B16: AB11-chim (antibody, V domains shown)
VH: DVQLVESGGGLVQPRGSRKLSCAASGFTFSSFGMHWVRQAPEKGLEWVAYISSDSRTIYYADTVKGRFTISRDNPTNTLFLQMTSLRSEDTAMYYCARDYGRTYEAYWGQGTLVTVSA
VL: DIVLTQSPASLAVSLGQRATISCRASKSVSTSGYSYIHWYQQKPGQPPKLLIYLASNLESGVPARFSGSGSGTDFTLNIHPVEEEDAATYYCQHSRELPLTFGAGTKLELK
notes: 'chim' is the pre-humanized form (parental variable regions); also called pre-humanized (chimeric) form of AB11

Target: T1, CLDN6 endogenously expressed by human …
Assay: FACS, 1.5 µg Ab, OVCA429 cells

Row | FACS fluorescence | Binder
1 | 1260 | B1
2 | 1110 | B2
3 | 1200 | B3
4 | 1350 | B4
5 | 1160 | B5
6 | 88700 | B6
7 | 2960 | B7
8 | 85900 | B8
9 | 2950 | B9
10 | 3570 | B10
11 | 2700 | B11
12 | 6750 | B12
13 | 3220 | B13
14 | 4270 | B14
15 | 25500 | B15
16 | 2440 | B16

Target: T2, human CLDN6 fused to GFP, expressed on …
Assay: FACS, 0.3 µg Ab, 293T clone with human CLDN6
Procedure, shortened: (§1)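 Binding of humanized antibodies to human CLDN6 was measured by flow cytometry on engineered 293T clones, following the source's direct-binding protocol closely. Each antibody was used at 0.3 µg or 1.5 µg. Cells were detached with EDTA, incubated for 30 min on ice in the dark with antibody labelled with Alexa Fluor 647 NHS ester, washed and read on a BD Accuri C6 in channel FL4H. The fluorescence signal serves as a measure of relative antigen binding strength.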

Row | FACS fluorescence | Binder
17 | 9500 | B1
18 | 15300 | B2
19 | 14100 | B3
20 | 16800 | B4
21 | 14300 | B5
22 | 251000 | B6
23 | 11600 | B7
24 | 309000 | B8
25 | 13300 | B9
26 | 46700 | B10
27 | 30400 | B11
28 | 26900 | B12
29 | 32400 | B13
30 | 29400 | B14
31 | 73800 | B15
32 | 1670 | B16

Target: T1, CLDN6 endogenously expressed by human …
Assay: FACS, 1.5 µg Ab, ARK2 cells
Procedure: (§2) FACS assays were also carried out to determine relative antigen binding strengths of the humanized antibodies (at either 1.5 μg or 0.3 μg) for binding to CLDN6 as expressed by the indicated cancer cell lines. 2nd Ab only was used as a negative control.

Row | FACS fluorescence | Binder
33 | 1470 | B1
34 | 1550 | B2
35 | 1400 | B3
36 | 1200 | B4
37 | 1520 | B5
38 | 54900 | B6
39 | 1460 | B7
40 | 33600 | B8
41 | 2910 | B9
42 | 4490 | B10
43 | 1210 | B11
44 | 1940 | B12
45 | 1380 | B13
46 | 1330 | B14
47 | 9150 | B15
48 | 1260 | B16

Target: T2, human CLDN6 fused to GFP, expressed on …
Assay: FACS, 1.5 µg Ab, 293T clone with human CLDN6
Procedure, shortened: as §1

Row | FACS fluorescence | Binder
49 | 24600 | B1
50 | 34300 | B2
51 | 49000 | B3
52 | 43400 | B4
53 | 47800 | B5
54 | 340000 | B6
55 | 55800 | B7
56 | 396000 | B8
57 | 48600 | B9
58 | 72000 | B10
59 | 58900 | B11
60 | 58500 | B12
61 | 54400 | B13
62 | 51900 | B14
63 | 135000 | B15
64 | 3490 | B16

Target: T1, CLDN6 endogenously expressed by human …
Assay: FACS, 0.3 µg Ab, ARK2 cells
Procedure: as §2

Row | FACS fluorescence | Binder
65 | 1140 | B1
66 | 1120 | B2
67 | 1050 | B3
68 | 967 | B4
69 | 1190 | B5
70 | 1160 | B6
71 | 1320 | B7
72 | 14700 | B8
73 | 1280 | B9
74 | 3510 | B10
75 | 1080 | B11
76 | 1390 | B12
77 | 1130 | B13
78 | 1310 | B14
79 | 3440 | B15
80 | 1320 | B16
